Assay results reported in patent US7148329 (KATHOLIEKE UNIVERSITEIT NIJMEGEN, dated 2006).

T1: DC-Specific ICAM-3 Grabbing Non-integrin (DC-SIGN) (human, UniProt Q9NNX6 1-404)
T1 construct: Type II membrane protein of 404 aa, on monocyte-derived DC or on COS7 cells transfected with pRc/CMV-DC-SIGN; in immunoprecipitation and pull-down it came from DC lysate; also called C-type lectin on dendritic cells
T1 sequence: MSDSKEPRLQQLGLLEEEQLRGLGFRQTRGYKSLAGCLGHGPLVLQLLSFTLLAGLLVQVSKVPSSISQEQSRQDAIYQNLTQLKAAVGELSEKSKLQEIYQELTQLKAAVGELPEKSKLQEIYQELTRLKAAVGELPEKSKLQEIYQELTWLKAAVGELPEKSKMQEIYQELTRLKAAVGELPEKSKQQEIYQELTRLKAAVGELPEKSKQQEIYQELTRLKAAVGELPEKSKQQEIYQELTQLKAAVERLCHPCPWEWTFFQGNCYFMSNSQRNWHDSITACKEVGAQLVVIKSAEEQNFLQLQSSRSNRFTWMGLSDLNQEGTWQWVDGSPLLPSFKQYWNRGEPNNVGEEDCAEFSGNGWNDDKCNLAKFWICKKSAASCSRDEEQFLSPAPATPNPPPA

B1: ICAM-2 expressed on K562 cells (ligand, UniProt P13598 25-275, looked up)
chain: KVFEVHVRPKKLAVEPKGSLEVNCSTTCNQPEVGGLETSLDKILLDEQAQWKHYLVSNISHDTVLQCHFTCSGKQESMNSNVSVYQPPRQVILTLQPTLVAVGKSFTIECRVPTVEPLDSLTLFLFRGNETLHYETFGKAAPAPQEATATFNSTADREDGHRNFSCLAVLDLMSRGGNIFHKHSAPKMLEIYEPVSDSQMVIIVTVVSVLLSLFVTSVLLCFIFGQHLRQQRMGTYGVRAAWRRLPQAFRP
notes: whole, on cells

Key:
[1] = target: DC-Specific ICAM-3 Grabbing Non-integrin (DC-SIGN) (human) (UniProt Q9NNX6); experiment: cell-based or functional assay
[2] = target: DC-Specific ICAM-3 Grabbing Non-integrin (DC-SIGN) (human) (UniProt Q9NNX6); experiment: flow cytometry on COS7 cells transfected with DC-SIGN cDNA
[3] = target: DC-Specific ICAM-3 Grabbing Non-integrin (DC-SIGN) (human) (UniProt Q9NNX6); experiment: flow cytometry on DC day 7; meaning of the grade from the table's footnote
[4] = target: T1, DC-Specific ICAM-3 Grabbing …; experiment: binding to K562 transfectants (FIG. 8)

| Molecule | DC-T cell clustering (percentage of DC which have bound fluorescent T cells) [1] | HIV-1 replication (p24 Gag) in DC-T cell co-culture, DC pre-incubated with antibody before the HIV-1 pulse [1] | T-lymphocyte proliferation induced by allogeneic DC ([3H]methyl-thymidine uptake) [1] | percent of transfected cells stained [2] | mean fluorescence [3] | binding result [4] |
| --- | --- | --- | --- | --- | --- | --- |
| AZN-D1 (antibody) | 50% | > 75% | > 75% | 30% | > 400 |  |
| AZN-D2 (antibody) | 50% | > 75% | > 75% |  |  |  |
| B1 |  |  |  |  |  | binds |
